Source: paper PMC12285911 (2025)

Biological target: T1, ^FAMFAT10 (GG–FAT10 N-terminally labeled with fluorescein amidite by sortase) (human, 5-FAM on the N terminus (5-FAM conjugated to the N terminus of the peptide …, attached by sortase))
T1 chain: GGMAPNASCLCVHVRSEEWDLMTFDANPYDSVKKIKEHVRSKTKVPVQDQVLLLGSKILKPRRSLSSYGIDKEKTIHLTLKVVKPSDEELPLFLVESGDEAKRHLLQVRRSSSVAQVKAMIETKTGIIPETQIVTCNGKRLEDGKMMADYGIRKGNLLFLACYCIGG
Assay: FP

Kd: 152 nM
B1: NUB1^Δ1–175 (domain or fragment)
chain: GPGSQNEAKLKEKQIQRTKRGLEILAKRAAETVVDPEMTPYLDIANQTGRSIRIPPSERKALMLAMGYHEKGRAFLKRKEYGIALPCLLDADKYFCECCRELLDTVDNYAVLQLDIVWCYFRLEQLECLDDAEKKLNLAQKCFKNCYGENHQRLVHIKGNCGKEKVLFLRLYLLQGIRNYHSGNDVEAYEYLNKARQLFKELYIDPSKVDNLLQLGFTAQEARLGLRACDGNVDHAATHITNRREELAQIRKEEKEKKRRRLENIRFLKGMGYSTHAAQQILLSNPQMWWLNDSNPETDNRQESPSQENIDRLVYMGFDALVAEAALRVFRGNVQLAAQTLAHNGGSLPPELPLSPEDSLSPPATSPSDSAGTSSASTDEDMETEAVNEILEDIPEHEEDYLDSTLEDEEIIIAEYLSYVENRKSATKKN
